From patent US10358638B2, “Method of producing 1,5-pentadiamine using lysine decarboxylase mutant having improved thermal stability” (AJINOMOTO CO., INC., priority 2014, dated 2019)

Tests used:
[1] = Remaining lysine decarboxylase activity of cell free extract after incubation at 65° C.; format: biochemical, Escherichia coli
Protocol: (§1) The activity of the lysine decarboxylase was measured according to the method described in JP patent application laid-open Publication No. 2008-193899. 0.1 mL of a microbial cell suspension or a treated product thereof was added to 1 mL of a reaction solution containing 100 mM MES-NaOH buffer (pH 6.0), 10 g/L (55 mM) of L-lysine hydrochloride and 26.5 mg/L (0.1 mM) of PLP, and then the reaction mixture was incubated at 37° C. for 5 minutes. 0.1 mL of the reaction solution was collected and added to 1 mL of 1% (v/v) phosphoric acid to stop the reaction. Lysine and 1,5-PD were quantified with HPLC by a post column OPA method (S. R. Vale and M. B. Gloria, Journal Of AOAC International (1997) vol. 80, p. 1006-1012) or a method of quantifying remaining L-lysine using a biosensor BF-5 (Oji Scientific Instruments Co., Ltd.). One unit was defined as an activity that formed 1 μmol of 1,5-PD in one minute under this condition.
Each transformant was inoculated to 50 mL of L medium in a 500 mL Sakaguchi flask containing 100 μg/mL of ampicillin and cultured with shaking at 30° C. for 16 hours. Microbial cells were collected from the cultured medium by centrifugation, washed once with saline, subsequently suspended in 5 mL of 100 mM potassium phosphate buffer (pH 7.0), and disrupted by sonication at 4° C. for 20 minutes. An insoluble fraction was removed by centrifuging the lysate solution at 8,000 rpm for 10 minutes to prepare a cell free extract.
The resulting cell free extract was diluted 20 fold with 100 mM MES-NaOH buffer (pH 6.0). This crude enzyme solution was incubated at 65° C., and its remaining activity after 3 and 5 hours was measured by the method described in Example 1. As a result, the activity in the crude enzyme solution from the strain expressing the mutated enzyme before incubation was almost the same as that from the strain expressing the wild-type enzyme (Table 3).

[2] = Inhibition of enzyme activity by iron ion and effect of chelating agent EDTA; format: biochemical, Escherichia coli
Protocol: as §1
Cell free extracts were prepared from the strain expressing wild-type CadA and the strain overexpressing double mutant CadA, respectively in the same manner as in Examples 2 and 3. Using the resulting cell free extract, iron sulfate heptahydrate (Nacalai Tesque Inc.) at a final concentration of […] (2 mM) was added to the composition shown in Example 1, and an inhibitory effect was measured. […]

[3] = Remaining lysine decarboxylase activity of cell free extract after incubation at 68° C.; format: biochemical, Escherichia coli; conditions: 68° C., 1 hour, FIG. 1
Protocol: as §1
A combination mutant for increasing the amount of expressed CadA was constructed using QuikChange™ Site-Directed Mutagenesis Kit (Stratagene). A mutation to alter from Val (GTT) to Ile ([…]) at position 3 was introduced using the plasmid pCadA233 as the template and using oligonucleotides v3i_r (5′-cat gtg att caa tat tgc aat aat gtt cat cta cat tcc tcc tta cg-3′(SEQ ID NO:11)) and v3i_f (5′-cgt aag gag gaa tgt aga tga aca tta ttg caa tat tga atc aca tg-3′ (SEQ ID NO:12)) as primers according to a protocol. The nucleotide sequence of the constructed plasmid was determined by the method described in Example 2 to confirm that the objective mutation had been introduced, and this plasmid was designated as pCadA234. Microbial cells of E. coli JM109/pCadA234 expressing this double mutant CadA234 at high level were cultured to prepare a cell free extract in the same manner as in Example 2. The activity in this cell free extract was 663 U/mL, which was almost the same as that from the strain expressing the wild-type enzyme.
The resulting cell free extract was diluted to 20 fold with 0.1 M MES-NaOH buffer (pH 6.0). Each crude enzyme solution was incubated at 68° C., which is a higher temperature than in Example 2, and the remaining activity was measured over time. After incubation at 68° C. for one hour, the wild-type enzyme was inactivated to 27% while the single mutant enzymes V3I and A590T were inactivated to 47% and 27%, respectively. On the contrary, the double mutant enzyme retained 70% of its activity, and even after 3 hours, still retained about 60% of its activity (FIG. 1). Therefore, it was shown that the double mutation has a synergistic effect and further improved the thermal stability.

[4] = Enzyme activity of culture media of expressing strains after heat treatment with or without disruption; format: cell-based, Escherichia coli
Protocol: as §1
Microbial cells of E. coli JM109/pCadA220 and E. coli JM109/pCadA234 carrying the wild-type CadA and the double mutant CadA, respectively were cultured in the LB medium. Subsequently, 15 mL of the cultured medium was inoculated into 300 mL of culture medium (25 g/L of glucose, 5 g/L of ammonium sulfate, 2 g/L of potassium phosphate, 1 g/L of magnesium sulfate heptahydrate, 20 mg/L of iron sulfate heptahydrate, 20 mg/L of manganese sulfate pentahydrate, 1 mg/L of thiamine hydrochloride, 0.45 g/L of hydrolyzed soybeans, pH 7.0) in a 500 mL jar fermenter (manufactured by ABLE & Biott Co., Ltd.), and cultured with ventilation at 300 mL/minute while stirring at 250 rpm at 30° C. for 12 hours. Culture media containing 10.1 g/L and 10.9 g/L of microbial cells in terms of dry microbial cell weight were able to be prepared for E. coli JM109/pCadA220 and E. coli JM109/pCadA234, respectively. For the purpose of improving substrate permeability, the pH value was adjusted to 5.5, and subsequently the culture media were incubated at 55° C. and 60° C., and then the culture media were directly used to measure the activity after the incubation.
Since the lysine decarboxylase is expressed within the microbial cell, when the microbial cell is used directly, lysine cannot react with the lysine decarboxylase, and the efficiency of a decarboxylation reaction is very poor. […] However, the wild-type enzyme was inactivated during the incubation when heated excessively. The mutated enzyme having the improved thermal stability could stably keep its activity even when using conditions where the wild-type enzyme was easily inactivated as shown in Example 2. When the microbial cells carrying such a mutated enzyme were used, efficient treatment in a short period of time was possible. This has shown that the mutated enzyme not only can act at higher temperature upon reaction but also can be easily used when the microbial cell is directly used.

[5] = cell free extract diluted 20 fold, before heating
[6] = Incubation at 55° C. for 1 h, Disruption
[7] = Incubation at 55° C. for 1 h, physical treatment None
[8] = Incubation at 55° C. for 3 h, Disruption
[9] = Incubation at 55° C. for 3 h, physical treatment None
[10] = Incubation at 60° C. for 1 h, Disruption
[11] = Incubation at 60° C. for 1 h, physical treatment None
[12] = No heat treatment, physical treatment None

B1: pCadA220: wild-type lysine decarboxylase (CadA) derived from Escherichia coli W3110, expressed from plasmid pCadA220 (protein, UniProt P0A9H3 1-715, looked up)
Inducible lysine decarboxylase: MNVIAILNHMGVYFKEEPIRELHRALERLNFQIVYPNDRDDLLKLIENNARLCGVIFDWDKYNLELCEEISKMNENLPLYAFANTYSTLDVSLNDLRLQISFFEYALGAAEDIANKIKQTTDEYINTILPPLTKALFKYVREGKYTFCTPGHMGGTAFQKSPVGSLFYDFFGPNTMKSDISISVSELGSLLDHSGPHKEAEQYIARVFNADRSYMVTNGTSTANKIVGMYSAPAGSTILIDRNCHKSLTHLMMMSDVTPIYFRPTRNAYGILGGIPQSEFQHATIAKRVKETPNATWPVHAVITNSTYDGLLYNTDFIKKTLDVKSIHFDSAWVPYTNFSPIYEGKCGMSGGRVEGKVIYETQSTHKLLAAFSQASMIHVKGDVNEETFNEAYMMHTTTSPHYGIVASTETAAAMMKGNAGKRLINGSIERAIKFRKEIKRLRTESDGWFFDVWQPDHIDTTECWPLRSDSTWHGFKNIDNEHMYLDPIKVTLLTPGMEKDGTMSDFGIPASIVAKYLDEHGIVVEKTGPYNLLFLFSIGIDKTKALSLLRALTDFKRAFDLNLRVKNMLPSLYREDPEFYENMRIQELAQNIHKLIVHHNLPDLMYRAFEVLPTMVMTPYAAFQKELHGMTEEVYLDEMVGRINANMILPYPPGVPLVMPGEMITEESRPVLEFLQMLCEIGAHYPGFETDIHGAYRQADGRYTVKVLKEESKK
Activity after incubation at 65° C. for 3 h ([1]; 65° C., 3 h): 413 Units/mL
Remaining activity after incubation at 65° C. for 3 h ([1]; 65° C., 3 h, relative to before heating): 59.2%
Activity after incubation at 65° C. for 5 h ([1]; 65° C., 5 h): 360 Units/mL
Remaining activity after incubation at 65° C. for 5 h ([1]; 65° C., 5 h, relative to before heating): 51.6%
Remaining activity after incubation at 65° C. for 5 h ([1]; 65° C., 5 h, relative to before heating, listed as wild-type enzyme): reduced by half
Activity before heating [1, 5]: 697 Units/mL
Activity before heating, remaining activity [1, 5]: 100%
activity with 2 mM iron ion, of the activity when no iron ion was added ([2]; 2 mM iron ion, no EDTA): 46.8%
Enzyme activity ([2]; FeSO4 2 mM, EDTA 0.5 mM): 827 units/ml
Enzyme activity ([2]; FeSO4 2 mM, EDTA 1 mM): 856 units/ml
Enzyme activity ([2]; FeSO4 2 mM, EDTA 2 mM): 821 units/ml
Enzyme activity ([2]; FeSO4 2 mM, EDTA 4 mM): 840 units/ml
Enzyme activity ([2]; FeSO4 2 mM, EDTA 5 mM): 832 units/ml
Enzyme activity ([2]; FeSO4 2 mM, EDTA None): 398 units/ml
Enzyme activity ([2]; FeSO4 None, EDTA 2 mM): 840 units/ml
Enzyme activity ([2]; FeSO4 None, EDTA None): 850 units/ml
remaining activity after incubation at 68° C. for one hour [3]: 27%
Enzyme activity [4, 6]: 819 units/ml
Relative activity [4, 6]: 89.6%
Enzyme activity [4, 7]: 246 units/ml
Relative activity [4, 7]: 26.9%
Enzyme activity [4, 8]: 730 units/ml
Relative activity [4, 8]: 79.9%
Enzyme activity [4, 9]: 375 units/ml
Relative activity [4, 9]: 41.0%
Enzyme activity [4, 10]: 798 units/ml
Relative activity [4, 10]: 87.3%
Enzyme activity [4, 11]: 282 units/ml
Relative activity [4, 11]: 30.9%
Enzyme activity ([4]; No heat treatment, Disruption): 914 units/ml
Relative activity ([4]; No heat treatment, Disruption): 100%
Enzyme activity [4, 12]: 17.5 units/ml
Relative activity [4, 12]: 1.9%
